The target of this series is His-BRD4-N (amino acids 1-500), O60885.

B1: GST-SPOP (protein)
chain: MSRVPSPPPPAEMSSGPVAESWCYTQIKVVKFSYMWTINNFSFCREEMGEVIKSSTFSSGANDKLKWCLRVNPKGLDEESKDYLSLYLLLVSCPKSEVRAKFKFSILNAKGEETKAMESQRAYRFVQGKDWGFKKFIRRDFLLDEANGLLPDDKLTLFCEVSVVQDSVNISGQNTMNMVKVPECRLADELGGLWENSRFTDCCLCVAGQEFQAHKAILAARSPVFSAMFEHEMEESKKNRVEINDVEPEVFKEMMCFIYTGKAPNLDKMADDLLAAADKYALERLKVMCEDALCSNLSVENAAEILILADLHSADQLKTQAVDFINYHASDVLETSGWKSMVVSHPHLVAEAYRSLASAQCPFLGPPRKRLKQS
In the case of B1, the “in vitro ubiquitination assay” value is listed as “The SPOP-CULLIN3-RBX1 complex was shown to catalyzed BRD4 ubiquitination in vitro”.

The values above are taken from patent US20210361653.
